{"source": "the supplement of paper PMC12042874", "note": "± gives the uncertainty stated by the source."}
{"assay": "amyloid nucleation score (Sup35N fusion, yeast selection) (log enrichment); library NNK1; higher = more nucleation; inactive = no reads after selection", "how_it_was_run": "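Growth for 7 days at 30°C on medium lacking adenine and uracil followed a 24-hour induction with 100 μM copper sulfate of psi-negative yeast expressing peptides of 20 random codons fused to Sup35N. Input and output plasmid inserts were sequenced with Illumina, and sequences with under 100 input reads were excluded. Nucleation score is the DiMSum log enrichment of output over input reads, centred on the mode score of non-aggregating sequences.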"}
{"substance": "SNGIQPMERI", "amyloid nucleation score": "-1.01 ± 1.7"}
{"substance": "SNIQDCYRFEGLHKKTNENL", "amyloid nucleation score": "-0.684 ± 0.91"}
{"substance": "SNLLTRSPLMLSSIIMVMNC", "amyloid nucleation score": "-0.133 ± 0.75"}
{"substance": "SNMTSRYYNCMVTWVRILVR", "amyloid nucleation score": "1.19 ± 0.41"}
{"substance": "SNPSVNRHFVSSRGWLGKSN", "amyloid nucleation score": "-0.422 ± 1.4"}
{"substance": "SNRCSPDMESDVHSVKELYR", "amyloid nucleation score": "0.762 ± 0.41"}
{"substance": "SNSRFMLHGWAGIWFIWSWG", "amyloid nucleation score": "0.124 ± 0.5"}
{"substance": "SNVAVRTSCYTGARMYTRWW", "amyloid nucleation score": "1.94 ± 0.19"}
{"substance": "SPFSGVL", "amyloid nucleation score": "0.589 ± 0.25"}
{"substance": "SPHSLTFSLMVMVRKKMMRS", "amyloid nucleation score": "0.012 ± 1.4"}
{"substance": "SPIMEKACVD", "amyloid nucleation score": "-0.053 ± 1.6"}
{"substance": "SPKSLLKRLWEYARKNTVML", "amyloid nucleation score": "0.151 ± 0.49"}
{"substance": "SPPDVSNN", "amyloid nucleation score": "-0.169 ± 0.75"}
{"substance": "SPPSLRNLNYIFAY", "amyloid nucleation score": "-0.948 ± 2.4"}
{"substance": "SQAAGSVY", "amyloid nucleation score": "0.026 ± 0.25"}
{"substance": "SQEHCMVNTK", "amyloid nucleation score": "0.112 ± 0.59"}
{"substance": "SQFYVLVIWLSCALSMGSSI", "amyloid nucleation score": "-0.04 ± 0.45"}
{"substance": "SQMTDYVFTL", "amyloid nucleation score": "0.848 ± 0.85"}
{"substance": "SQTSVPGGSDEAGAGVKQGF", "amyloid nucleation score": "0.134 ± 0.56"}
{"substance": "SRCCRYLKHVRSIGSVQVAS", "amyloid nucleation score": "1.16 ± 0.32"}
{"substance": "SRCRNYYKVHVL", "amyloid nucleation score": "-1.17 ± 1.7"}
{"substance": "SRDVVSAGYKKCGYGMYCTK", "amyloid nucleation score": "1.11 ± 0.37"}
{"substance": "SRFHVKLRLYFGSNIARTSK", "amyloid nucleation score": "6.618 ± 0.061"}
{"substance": "SRGHDVRLTACDADGGLGLC", "amyloid nucleation score": "-0.17 ± 0.46"}
{"substance": "SRISMVMVLSLFSVKFRWNP", "amyloid nucleation score": "0.328 ± 0.24"}
{"substance": "SRLLMKRIYYCVYPKGTTKK", "amyloid nucleation score": "inactive"}
{"substance": "SRNNCSNRRDYHGIYSMRIS", "amyloid nucleation score": "0.513 ± 0.79"}
{"substance": "SRRFYLTPELPVTHVCCVGK", "amyloid nucleation score": "1.03 ± 0.62"}
{"substance": "SRRKQIVGKVSVFFEASRFV", "amyloid nucleation score": "-1.06 ± 1.2"}
{"substance": "SRVEWEDVYENVGGKGTSRE", "amyloid nucleation score": "-0.087 ± 0.44"}
{"substance": "SRVNCYSSHSFSKYGRVGKS", "amyloid nucleation score": "-0.004 ± 0.59"}
{"substance": "SRVRVLASVSFMTVRMVFEV", "amyloid nucleation score": "0.436 ± 0.25"}
{"substance": "SRWPAVVRTLFRSCKV", "amyloid nucleation score": "0.48 ± 0.65"}
{"substance": "SRYALLIYVLEDGCLAVLKP", "amyloid nucleation score": "0.562 ± 1.2"}
{"substance": "SRYYNILWNKVCRVRDNH", "amyloid nucleation score": "inactive"}
{"substance": "SSAFSLRLFDLSLNYFEFDE", "amyloid nucleation score": "-0.595 ± 0.68"}
{"substance": "SSCNRRSHKP", "amyloid nucleation score": "-0.471 ± 0.54"}
{"substance": "SSERGTWIMVARVQSVTNNV", "amyloid nucleation score": "inactive"}
{"substance": "SSEVRMTVVSLGPLMDRPNV", "amyloid nucleation score": "-0.243 ± 0.68"}
{"substance": "SSFQIRVSVLRRHCISGLIY", "amyloid nucleation score": "1.01 ± 0.79"}
{"substance": "SSGDGRRAP", "amyloid nucleation score": "0.335 ± 0.39"}
{"substance": "SSIRNVTAICINGSRLINVL", "amyloid nucleation score": "1.1 ± 0.54"}
{"substance": "SSLGIGFAPLISSFISC", "amyloid nucleation score": "-0.429 ± 0.64"}
{"substance": "SSLYETY", "amyloid nucleation score": "inactive"}
{"substance": "SSMMLDYCRSYCANISTKCQ", "amyloid nucleation score": "0.675 ± 0.24"}
{"substance": "SSRNSAAFLNHFDADRGLLP", "amyloid nucleation score": "1.53 ± 0.14"}
{"substance": "SSSFGHYDTWLYSSLFQGLT", "amyloid nucleation score": "3.46 ± 0.14"}
{"substance": "SSSHPSLIGNLDTRLNWMTM", "amyloid nucleation score": "1.52 ± 0.32"}
{"substance": "SSSVVSV", "amyloid nucleation score": "0.102 ± 0.33"}
{"substance": "SSSVYVVVEPDMNGLMGMRK", "amyloid nucleation score": "0.08 ± 0.61"}
{"substance": "SSSYVYYEGRFILTFGLF", "amyloid nucleation score": "-0.157 ± 0.47"}
{"substance": "SSTGAVLIHNCTTRSVDLSG", "amyloid nucleation score": "0.45 ± 0.69"}
{"substance": "SSTLFMKSYIFDPQKLNSPP", "amyloid nucleation score": "0.375 ± 0.42"}
{"substance": "SSVLVLHYRTSG", "amyloid nucleation score": "2.58 ± 0.09"}
{"substance": "SSVYFSRFTERQKAVRETGS", "amyloid nucleation score": "inactive"}
{"substance": "SSWLC", "amyloid nucleation score": "1.4 ± 0.47"}
{"substance": "SSYDWCWSHVCFK", "amyloid nucleation score": "0.8 ± 0.38"}
{"substance": "SSYNLKYLWGCIC", "amyloid nucleation score": "7.263 ± 0.048"}
{"substance": "SSYVNRDCAFLWDD", "amyloid nucleation score": "2.75 ± 0.19"}
{"substance": "STDMYVPVPDTDWIICLRQL", "amyloid nucleation score": "-0.23 ± 0.56"}
{"substance": "STDSCVALSMATWF", "amyloid nucleation score": "0.188 ± 0.46"}
{"substance": "STFMSILTSESTMRNGITNR", "amyloid nucleation score": "inactive"}
{"substance": "STKKLYTILRHWSYDFAESG", "amyloid nucleation score": "-0.509 ± 1.7"}
{"substance": "STKQFFRLAFRGPWKTGHKP", "amyloid nucleation score": "0.273 ± 0.96"}
{"substance": "STKWLFGKNGVSLYLLSRRR", "amyloid nucleation score": "2.58 ± 0.13"}
{"substance": "STLFSWNRRNCDTHVLLVPW", "amyloid nucleation score": "inactive"}
{"substance": "STPNRLGPMPSWVGSTEAVV", "amyloid nucleation score": "-0.474 ± 1.1"}
{"substance": "STRDQSDVMDRLTGEHHQQW", "amyloid nucleation score": "0.363 ± 0.41"}
{"substance": "STTILCLLI", "amyloid nucleation score": "5.21 ± 0.061"}
{"substance": "STTIPRVFGSTYNSYNVSIS", "amyloid nucleation score": "0.384 ± 0.34"}
{"substance": "STTPQRLNFDMSTPISWIRQ", "amyloid nucleation score": "0.173 ± 0.32"}
{"substance": "STTYCFFSYAGLRICYALMG", "amyloid nucleation score": "1.3 ± 0.2"}
{"substance": "STVRSAPFSWLPGKYGWSKC", "amyloid nucleation score": "-0.214 ± 0.98"}
{"substance": "STYTALIFLHRSVFDLPSVQ", "amyloid nucleation score": "0.787 ± 0.68"}
{"substance": "SVCILHMRRSCVGKPPKYNA", "amyloid nucleation score": "inactive"}
{"substance": "SVELGSGLMMWGTNSKLTVV", "amyloid nucleation score": "0.649 ± 0.76"}
{"substance": "SVGYH", "amyloid nucleation score": "0.699 ± 0.59"}
{"substance": "SVILIGRRDDHASSIRVIGS", "amyloid nucleation score": "-0.752 ± 0.69"}
{"substance": "SVIRDWLSGACSGTTEGRRT", "amyloid nucleation score": "-0.295 ± 0.43"}
{"substance": "SVLCHCVLNVWLGWHLWIDP", "amyloid nucleation score": "0.707 ± 0.53"}
{"substance": "SVLGSHSRAKLITAWPTRKI", "amyloid nucleation score": "inactive"}
{"substance": "SVLKSITPNGPLLFSYVCSI", "amyloid nucleation score": "-1.56 ± 0.58"}
{"substance": "SVLTGNVTGDDGLCKSSIYA", "amyloid nucleation score": "0.515 ± 0.34"}
{"substance": "SVLYRINP", "amyloid nucleation score": "-1.55 ± 2.4"}
{"substance": "SVMAGSYITPVRMRKKKLFV", "amyloid nucleation score": "inactive"}
